In patent publication US9394371B2, “Antibody-mediated disruption of quorum sensing in bacteria” (The Scripps Research Institute, priority 2007, dated 2016):
Where two headings read alike, the source gives them in different places.

What was measured:
AIP-2 = experiment: Competition ELISA (free native AIP against hapten-BSA coated plates); format: binding, S. aureus
S. aureus USA300 = experiment: Postexposure therapy of lethal systemic MRSA USA300 challenge; format: in vivo, C57BL/6 mice; conditions: 1 mg i.p. 2 hours after infection with at least 1×10^8 S. aureus USA300; n=6; FIG. 12
Protocol: Mice were treated with AP1-15B4 (1 mg) or control IgG (1 mg) 2 hours after S. aureus injection (1-3×10^8 i.p.). The numbers in parenthesis show survivors per group, p=0.02; n=6 for each group.
C57BL/6 mice received 1 mg of AP1-15B4 (i.p.), isotype control IgG or PBS 2 hours after they had been infected with at least 1×10^8 S. aureus USA300, an agr I MRSA strain. See Diep et al., Lancet 2006, 367, (9512), 731-739. USA300 is in fact one of the most common community-acquired MRSA (CA-MRSA) strains and represents an increasing threat for civilians and military personnel. Hageman et al., Diagn Microbiol Infect Dis 2008; James et al., Arch Dis Child Fetal Neonatal Ed 2008, 93, (1), F40-4; Tenover et al., J Clin Microbiol 2006, 44, (1), 108-18; Beilman et al., Surg Infect (Larchmt) 2005, 6, (1), 87-92. […] In contrast, only two of the PBS treated control mice (2/6) and 2 of the control IgG treated mice (2/6) survived longer than 24 hours.

S. aureus RN6390B [1] = experiment: Static biofilm analysis (crystal violet); format: cell-based; conditions: FIG. 10B
AIP-4 = experiment: Competition ELISA (free native AIP against hapten-BSA coated plates); format: binding, S. aureus
Protocol: (§1) The optimal concentrations of the AP4-BSA conjugate as well as of each mAb were determined. 96 well ELISA plates were coated with the appropriate amount of AP4-BSA conjugate respectively. The plates were blocked with 4% skim milk, washed and mAbs were added at the predetermined optimal concentration. The plates were washed and free antigen, i.e. the native AIPs 1-4, was added to the wells in a concentration series starting at 100 μM. The plate was incubated for 1 hour at 37° C., thoroughly washed, and goat anti-mouse-horseradish peroxidase (HRP) conjugate (Pierce, Rockford, Ill.) was added. After an incubation period of 1 hour at RT, the plate was thoroughly washed again and the HRP substrate (TMB substrate kit; Pierce) was added, the reaction was allowed to develop for 15 minute and stopped by the addition of 2 M H2SO4. The absorbance at 450 nm was read and the values plotted using GraFit (Erithacus Software Ltd). The free antigen concentration at which the absorbance value is 50% of the maximum absorbance was considered the Kd of the antibody for its antigen.
as §1, with “For the competition ELISA analysis, the optimal concentrations” for “The optimal concentrations”, “of the AP1-BSA, AP3-BSA, or AP4-BSA conjugate,” for “of the AP4-BSA conjugate”, “or AP4-BSA conjugate, as well” for “the AP4-BSA conjugate as well”, “amount of AP1-BSA, AP3-BSA, or AP4-BSA conjugate” for “amount of AP4-BSA conjugate”, “blocked with 4 v % skim milk,” for “blocked with 4% skim milk,”, “for 15 minutes and stopped” for “for 15 minute and stopped”

S. aureus RN6390B [2] = format: cell-based
AIP-1 = experiment: Competition ELISA (free native AIP against hapten-BSA coated plates); format: binding, S. aureus
S. aureus RN4850 [3] = format: cell-based; conditions: FIG. 3B
S. aureus RN4850 [4] = experiment: Dermal infection model in mice (abscess formation); conditions: for S. aureus-induced skin injury: flank injection
Protocol: Additional control animals received 200 μL intradermal injections containing Cytodex beads or beads plus antibody. After injections were made the mice were monitored at least three times each day over a period of 4-7 days. At the conclusion of the monitoring period the mice were euthanized and tissues harvested for bacteriologic and histologic analysis.
SKH1 euthymic hairless mice, 6-8 weeks old were obtained from Charles River Laboratories and housed in the biocontainment vivarium for one week before use in experiments. […] Cytodex 1 beads (GE Healthcare 17-0448-01) were suspended (1 gram in 50 mL) in Dulbecco's Phosphate Buffered Saline without calcium/magnesium (Gibco) overnight at 20° C. The supernatant was decanted and the beads washed three times by suspension in DPBS and 1 G sedimentation followed by autoclaving (121° C., 15 psi, 15 minutes). Staphylococcus aureus RN4850 (AIP4) was grown from frozen stock (BHI+20% glycerol) on brain heart infusion agar plates 35° C. overnight. Three representative colonies were combined to inoculate 2 mL CYGP broth, and after overnight incubation without shaking, 0.25 mL of the culture was used to inoculate 5 mL of CYGP followed by incubation at 35° C., 200 rpm for 3 hours. The culture was centrifuged 1,300×G at 4° C. for 20 minutes, the supernatant poured off, and the bacterial pellet was suspended in 1 mL DPBS without calcium/magnesium. The SKH1 received 200 μL intradermal flank injections containing S. aureus (1×10^7 or 1×10^8 bacteria), 4 μL packed volume Cytodex beads, DPBS, anti-AIP4 antibody or control IgG (0.6 or 0.06 mg). Additional control animals received 200 μL intradermal injections containing Cytodex beads or beads plus antibody. After injections were made the mice were monitored at least three times each day over a period of 4-7 days. At the conclusion of the monitoring period the mice were euthanized and tissues harvested for bacteriologic and histologic analysis.
Subcutaneous injections of bacterial suspension or vehicle control were made in the flank of SKH1 hairless mice followed by close monitoring over seven days.

S. aureus Wood 46 = format: cell-based
S. aureus RN4850 [5] = experiment: Passive immunization against lethal S. aureus challenge; format: in vivo, SKH1 mice; conditions: antibody i.p. 2 hours before 3×10^8 S. aureus RN4850 i.p.; FIG. 8
Protocol: FIG. 8 illustrate survival data obtained from passive immunization of mice with AP4-24H11 against S. aureus infection. […] The numbers in parenthesis show number of survivors/number per group. The log rank statistic, p=0.001; n=6 for each group.
S. aureus RN4850 were stored at −80° C. in 20% glycerol/BHI medium, thawed and grown on BHI-agar plates overnight, and three separate colonies sampled to inoculate 2 mL CYGP medium. The inoculum culture was maintained 1 hour at 35° C. without shaking, followed by shaking at 200 rpm for 3 hours. Aliquots of the freshly grown inoculum culture were transferred to 5 mL CYGP medium in 50 mL conical polypropylene tubes (1/20 dilution) followed by shaking at 200 rpm, 35° C. for 3 hours. The bacteria were pelleted by centrifugation at 3,000 rpm (1300×G) for 10 minutes, 4° C. […]
Mab AP4-24H11, isotype-matched control IgG (1 mg each) or DPBS was administered i.p. in DPBS to SKH1 mice (6-9 weeks old; 6 animals per treatment group) followed two hours later by 0.5 mL DPBS^− i.p. containing 3×10^8 S. aureus. The mice were monitored several times on the day of injection and twice each day on subsequent days, observing ambulation, alertness, response to handling and skin temperature measured by infrared thermometry (Raytek MiniTemp MT4) using a 1 cm diameter infrasternal skin site. […]

[6] = system: S. aureus RN4850, NRS168 and Wood 46; format: cell-based; conditions: 24-hour growth period; FIG. 4B
S. aureus RN4850 [7] = experiment: Static biofilm analysis (crystal violet); format: cell-based; conditions: antibody 0.2 mg/mL, FIG. 4C
[8] = system: agr QS system in S. aureus RN4850; format: cell-based
AIP-3 = experiment: Competition ELISA (free native AIP against hapten-BSA coated plates); format: binding, S. aureus
Protocol: as §1
as §1, with “For the competition ELISA analysis, the optimal concentrations” for “The optimal concentrations”, “of the AP1-BSA, AP3-BSA, or AP4-BSA conjugate,” for “of the AP4-BSA conjugate”, “or AP4-BSA conjugate, as well” for “the AP4-BSA conjugate as well”, “amount of AP1-BSA, AP3-BSA, or AP4-BSA conjugate” for “amount of AP4-BSA conjugate”, “blocked with 4 v % skim milk,” for “blocked with 4% skim milk,”, “for 15 minutes and stopped” for “for 15 minute and stopped”

S. aureus RN4850 [9] = format: cell-based
Jurkat cells = experiment: S. aureus supernatant-induced PARP cleavage (apoptosis), Western blot; format: cell-based, Human; conditions: 4 hours, FIG. 5

B1: AP1-15B4: murine anti-AIP1 monoclonal antibody; VH SEQ ID NO: 19, VL SEQ ID NO: 147 (antibody, V domains shown)
VH: EVHLVESGGDLVKPGGSLKLSCAASGFAFSDFAMSWVRQTPEKRLEWVAIIKSDDSYTYYPDSVRDRFTISRDNARNTLYLQMTSLRSEDTALYYCTKIYDAYFYAMDYWGQGTSVTVSS
VL: DIVRTQSPLSLSVSLGDQASISCRSSQSLLHSNGNTYLHWYLQKPGQSPKLLIYKVSNRFSGVPDRFSGSGSGTDFTLKISILEAEDLGIYFCSQSTHFPTFGGGTKLEIK
modifications: Murine
Kd (AIP-2; AP1 Sups, AP1-BSA coated plates, read-out: AIP2 wt): > 100 µM
mice surviving through the 48-hour observation period (S. aureus USA300): 4 out of 6
static biofilm formation (S. aureus RN6390B [1]): increase in biofilm formation
Kd (AIP-4; AP1 Sups, AP1-BSA coated plates, read-out: AIP4 wt): > 100 µM
quorum sensing inhibition of group I strains (α-hemolysin expression) (S. aureus RN6390B [2]): efficiently inhibit quorum sensing
quorum sensing inhibition, hemolysin expression (S. aureus RN6390B [2]): most potent activity
Kd (AIP-1; AP1 Sups, AP1-BSA coated plates, read-out: AIP1 wt): ~0.8 µM

B2: AP4-24H11: murine anti-AIP-4 monoclonal antibody; VH SEQ ID NO: 20, VL SEQ ID NO: 148 (antibody, V domains shown)
VH: EVKPQESGPGLVKPSQSLSLTCTVTGYSITSNYAWNWIRQFPGNKLEWMGFISSYGTTTYNPSLKSRFSITRDTSKNQFFLQLHSVTIEDTGTYFCTREGDYWGQGTTLTVSS
VL: DIVMTQATLSLPVSLGDQASISCRSSQRLVPSNGNIYLHWFLQKPGQSPKLLIYKLSSRFSGVPDRFSGSGSGTDFTLKISRVESEDLGIYFCSQTTHVPYTFGGGTKLEIK
modifications: Murine
Kd (AIP-2; AP4 Sups, AP4-BSA coated plates, read-out: AIP2 wt): > 25 µM
Kd (AIP-2; selected AP4 mAbs, AP4-BSA coated plates, average of at least two measurements, read-out: Binding constant, AIP-2): > 25 µM
hemolytic activity of treated supernatant on blood agar plates (S. aureus RN4850 [3]): no hemolytic activity was observed
condition of mice injected with PBS/Cytodex containing antibody, no bacteria (S. aureus RN4850 [4]; 0.6 mg antibody, occasional local induration, FIG. 7D): remained normal
S. aureus-induced skin injury (S. aureus RN4850 [4]; 10^8 bacteria with 0.06 mg antibody): not protective
S. aureus-induced skin injury (S. aureus RN4850 [4]; 10^8 bacteria with 0.6 mg antibody, 7 day observation): skin injury was abrogated
α-hemolysin production (Western blot) (S. aureus Wood 46): notable decrease in α-hemolysin production
survivors/number per group through the 8-day observation period (S. aureus RN4850 [5]): 6/6
growth of S. aureus in presence of antibody [6]: no significant growth changes
static biofilm formation (S. aureus RN4850 [7]): increased biofilm formation
eta mRNA fold-change [8]: −8.1±1 fold
hla mRNA fold-change [8]: −5.2±3.1 fold
rnaIII mRNA fold-change [8]: −77±48 fold
saeR mRNA fold-change [8]: +1.4±0.4 fold
sarA mRNA fold-change [8]: −2.1±0.6 fold
spa mRNA fold-change [8]: +5.7±3.6 fold
decrease of eta transcription ([8]; RN4850): ≈ 10 fold
elevation of spa transcription ([8]; RN4850): 3 to 5 fold
suppression of hla transcription ([8]; RN4850): 3 to 5 fold
reduction of rnaIII transcriptional level ([8]; RN4850, stationary growth phase): > 50 fold
change in saeR transcription ([8]; RN4850, no significant changes): ≤ 2 fold
change in sarA transcription ([8]; RN4850, no significant changes): ≤ 2 fold
Kd (AIP-4; AP4 Sups, AP4-BSA coated plates, competing hybridomas re-tested, average, read-out: AIP4 wt): ~0.098 µM
Kd (AIP-4; selected AP4 mAbs, AP4-BSA coated plates, average of at least two measurements, read-out: Binding constant, AIP-4): ~0.09 µM
Kd (AIP-3; AP4 Sups, read-out: AIP3 wt): > 25 µM
Kd (AIP-3; selected AP4 mAbs, average of at least two measurements, read-out: Binding constant, AIP-3): > 25 µM
exoprotein expression/secretion (SDS-PAGE) (S. aureus RN4850 [9]): affects the expression and/or secretion of S. aureus exoproteins
hemolysins secretion (α-hemolysin western analysis) (S. aureus RN4850 [9]): clear reduction in hemolysins secretion
protein A expression (Western blot) (S. aureus RN4850 [9]; 20-24 hours): significantly increased
α-hemolysin expression (Western blot) (S. aureus RN4850 [9]; 20-24 hours): reduce the α-hemolysin expression
Kd (AIP-1; AP4 Sups, AP4-BSA coated plates, competing hybridomas re-tested, average, read-out: AIP1 wt): ~5 µM
Kd (AIP-1; selected AP4 mAbs, AP4-BSA coated plates, average of at least two measurements, read-out: Binding constant, AIP-1): ~5 µM
PARP cleavage induced by RN4850 supernatant (Jurkat cells; supernatant (1%) of culture grown with antibody): prevented RN4850 supernatant (1%)-induced PARP cleavage
PARP cleavage induced by Wood 46 supernatant (Jurkat cells; supernatant of culture grown with antibody): partially inhibited the effect of Wood 46 supernatant
